B1: CYFIP1 (protein, UniProt Q7L576 1-1253, looked up)
Cytoplasmic FMR1-interacting …: MAAQVTLEDALSNVDLLEELPLPDQQPCIEPPPSSLLYQPNFNTNFEDRNAFVTGIARYIEQATVHSSMNEMLEEGQEYAVMLYTWRSCSRAIPQVKCNEQPNRVEIYEKTVEVLEPEVTKLMNFMYFQRNAIERFCGEVRRLCHAERRKDFVSEAYLITLGKFINMFAVLDELKNMKCSVKNDHSAYKRAAQFLRKMADPQSIQESQNLSMFLANHNKITQSLQQQLEVISGYEELLADIVNLCVDYYENRMYLTPSEKHMLLKVMGFGLYLMDGSVSNIYKLDAKKRINLSKIDKYFKQLQVVPLFGDMQIELARYIKTSAHYEENKSRWTCTSSGSSPQYNICEQMIQIREDHMRFISELARYSNSEVVTGSGRQEAQKTDAEYRKLFDLALQGLQLLSQWSAHVMEVYSWKLVHPTDKYSNKDCPDSAEEYERATRYNYTSEEKFALVEVIAMIKGLQVLMGRMESVFNHAIRHTVYAALQDFSQVTLREPLRQAIKKKKNVIQSVLQAIRKTVCDWETGHEPFNDPALRGEKDPKSGFDIKVPRRAVGPSSTQLYMVRTMLESLIADKSGSKKTLRSSLEGPTILDIEKFHRESFFYTHLINFSETLQQCCDLSQLWFREFFLELTMGRRIQFPIEMSMPWILTDHILETKEASMMEYVLYSLDLYNDSAHYALTRFNKQFLYDEIEAEVNLCFDQFVYKLADQIFAYYKVMAGSLLLDKRLRSECKNQGATIHLPPSNRYETLLKQRHVQLLGRSIDLNRLITQRVSAAMYKSLELAIGRFESEDLTSIVELDGLLEINRMTHKLLSRYLTLDGFDAMFREANHNVSAPYGRITLHVFWELNYDFLPNYCYNGSTNRFVRTVLPFSQEFQRDKQPNAQPQYLHGSKALNLAYSSIYGSYRNFVGPPHFQVICRLLGYQGIAVVMEELLKVVKSLLQGTILQYVKTLMEVMPKICRLPRHEYGSPGILEFFHHQLKDIVEYAELKTVCFQNLREVGNAILFCLLIEQSLSLEEVCDLLHAAPFQNILPRVHVKEGERLDAKMKRLESKYAPLHLVPLIERLGTPQQIAIAREGDLLTKERLCCGLSMFEVILTRIRSFLDDPIWRGPLPSNGVMHVDECVEFHRLWSAMQFVYCIPVGTHEFTVEQCFGDGLHWAGCMIIVLLGQQRRFAVLDFCYHLLKVQKHDGKDEIIKNVPLKKMVERIRKFQILNDEIITILDKYLKSGDGEGTPVEHVRCFQPPIHQSLASS
B2: CSTF3 (protein, UniProt Q12996 2-717, looked up)
Cleavage stimulation factor …: SGDGATEQAAEYVPEKVKKAEKKLEENPYDLDAWSILIREAQNQPIDKARKTYERLVAQFPSSGRFWKLYIEAEIKAKNYDKVEKLFQRCLMKVLHIDLWKCYLSYVRETKGKLPSYKEKMAQAYDFALDKIGMEIMSYQIWVDYINFLKGVEAVGSYAENQRITAVRRVYQRGCVNPMINIEQLWRDYNKYEEGINIHLAKKMIEDRSRDYMNARRVAKEYETVMKGLDRNAPSVPPQNTPQEAQQVDMWKKYIQWEKSNPLRTEDQTLITKRVMFAYEQCLLVLGHHPDIWYEAAQYLEQSSKLLAEKGDMNNAKLFSDEAANIYERAISTLLKKNMLLYFAYADYEESRMKYEKVHSIYNRLLAIEDIDPTLVYIQYMKFARRAEGIKSGRMIFKKAREDTRTRHHVYVTAALMEYYCSKDKSVAFKIFELGLKKYGDIPEYVLAYIDYLSHLNEDNNTRVLFERVLTSGSLPPEKSGEIWARFLAFESNIGDLASILKVEKRRFTAFKEEYEGKETALLVDRYKFMDLYPCSASELKALGYKDVSRAKLAAIIPDPVVAPSIVPVLKDEVDRKPEYPKPDTQQMIPFQPRHLAPPGLHPVPGGVFPVPPAAVVLMKLLPPPICFQGPFVQVDELMEIFRRCKIPNTVEEAVRIITGGAPELAVEGNGPVESNAVLTKAVKRPNEDSDEDEEKGAVVPPVHDIYRARQQKRIR
B3: ZRANB2 (protein, UniProt O95218 1-330, looked up)
Zinc finger Ran-binding …: MSTKNFRVSDGDWICPDKKCGNVNFARRTSCNRCGREKTTEAKMMKAGGTEIGKTLAEKSRGLFSANDWQCKTCSNVNWARRSECNMCNTPKYAKLEERTGYGGGFNERENVEYIEREESDGEYDEFGRKKKKYRGKAVGPASILKEVEDKESEGEEEDEDEDLSKYKLDEDEDEDDADLSKYNLDASEEEDSNKKKSNRRSRSKSRSSHSRSSSRSSSPSSSRSRSRSRSRSSSSSQSRSRSSSRERSRSRGSKSRSSSRSHRGSSSPRKRSYSSSSSSPERNRKRSRSRSSSSGDRKKRRTRSRSPERRHRSSSGSSHSGSRSSSKKK

Columns and labels:
3×MBT domain of L3MBTL1 = assay: Triple SILAC pull-down, 3xMBT/3xMBTD355N ratio (cytoplasmic, nuclear and chromatin fractions of 293T cells); type: binding, human; conditions: for 3xMBT/D355N UNC Heavy: experiment with UNC0638 in heavy SILAC media; for 3xMBT/D355N UNC Light: experiment with UNC0638 in light SILAC media;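 on all read-outs here: proteins quantified with MaxQuant, requiring at least two unique peptides and quantification in both label directions, normalized to the mean of proteins from a digested loading control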
G9a and GLP = target: T1, G9a and GLP (Homo sapiens, UniProt Q96KQ7+Q9H9B1); assay: Triple SILAC pull-down after UNC0638 treatment of 293T cells, DMSO/UNC0638 ratio of protein captured by 3×MBT; type: cell-based; parameters: cells were treated for 24 hours with UNC0638 at 2.5 μM or DMSO vehicle control; endogenous in cells; host or cells: HEK 293T; conditions: for Relative to UNC0638 UNC Heavy: UNC0638 in heavy SILAC media; for Relative to UNC0638 UNC Light: UNC0638 in light SILAC media; for Relative to UNC0638 Average: average of UNC Light and UNC Heavy experiments;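 on all read-outs here: mass spectrometry (Q-Exactive) SILAC quantitation, DMSO/UNC0638 ratio computed after subtracting 3×MBTD355N mutant pull-down background, only proteins with at least twofold 3×MBT over mutant signal considered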
T1 sequence (Q96KQ7 2-1210 limits assumed): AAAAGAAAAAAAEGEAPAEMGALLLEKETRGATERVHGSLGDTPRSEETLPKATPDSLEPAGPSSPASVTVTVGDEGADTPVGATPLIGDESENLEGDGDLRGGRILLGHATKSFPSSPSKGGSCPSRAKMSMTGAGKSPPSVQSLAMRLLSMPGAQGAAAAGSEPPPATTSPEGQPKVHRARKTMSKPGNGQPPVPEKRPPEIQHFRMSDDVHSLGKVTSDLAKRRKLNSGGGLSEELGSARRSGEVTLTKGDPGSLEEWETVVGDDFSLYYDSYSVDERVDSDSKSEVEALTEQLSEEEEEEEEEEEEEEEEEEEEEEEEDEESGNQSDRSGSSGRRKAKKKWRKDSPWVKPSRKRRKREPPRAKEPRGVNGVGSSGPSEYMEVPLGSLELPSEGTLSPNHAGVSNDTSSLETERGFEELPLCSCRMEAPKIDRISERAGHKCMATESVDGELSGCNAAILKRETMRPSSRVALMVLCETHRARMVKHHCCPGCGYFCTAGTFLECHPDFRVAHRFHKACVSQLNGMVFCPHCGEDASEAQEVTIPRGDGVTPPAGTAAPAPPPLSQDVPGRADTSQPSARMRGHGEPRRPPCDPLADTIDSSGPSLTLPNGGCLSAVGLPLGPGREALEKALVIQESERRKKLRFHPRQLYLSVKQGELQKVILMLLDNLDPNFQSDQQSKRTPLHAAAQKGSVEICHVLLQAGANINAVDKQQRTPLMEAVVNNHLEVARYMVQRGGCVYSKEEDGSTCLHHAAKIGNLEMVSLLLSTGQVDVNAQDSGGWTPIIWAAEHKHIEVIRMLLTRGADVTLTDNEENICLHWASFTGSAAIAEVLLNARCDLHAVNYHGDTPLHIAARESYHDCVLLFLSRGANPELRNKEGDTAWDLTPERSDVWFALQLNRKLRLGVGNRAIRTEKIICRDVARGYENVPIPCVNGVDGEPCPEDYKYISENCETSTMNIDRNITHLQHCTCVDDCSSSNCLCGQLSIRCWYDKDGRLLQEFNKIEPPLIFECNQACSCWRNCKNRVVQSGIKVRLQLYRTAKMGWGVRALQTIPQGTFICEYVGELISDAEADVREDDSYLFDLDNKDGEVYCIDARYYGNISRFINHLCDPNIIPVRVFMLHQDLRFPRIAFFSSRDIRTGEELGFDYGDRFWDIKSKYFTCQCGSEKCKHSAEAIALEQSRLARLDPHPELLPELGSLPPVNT
T1 sequence (Q9H9B1 2-1298 limits assumed): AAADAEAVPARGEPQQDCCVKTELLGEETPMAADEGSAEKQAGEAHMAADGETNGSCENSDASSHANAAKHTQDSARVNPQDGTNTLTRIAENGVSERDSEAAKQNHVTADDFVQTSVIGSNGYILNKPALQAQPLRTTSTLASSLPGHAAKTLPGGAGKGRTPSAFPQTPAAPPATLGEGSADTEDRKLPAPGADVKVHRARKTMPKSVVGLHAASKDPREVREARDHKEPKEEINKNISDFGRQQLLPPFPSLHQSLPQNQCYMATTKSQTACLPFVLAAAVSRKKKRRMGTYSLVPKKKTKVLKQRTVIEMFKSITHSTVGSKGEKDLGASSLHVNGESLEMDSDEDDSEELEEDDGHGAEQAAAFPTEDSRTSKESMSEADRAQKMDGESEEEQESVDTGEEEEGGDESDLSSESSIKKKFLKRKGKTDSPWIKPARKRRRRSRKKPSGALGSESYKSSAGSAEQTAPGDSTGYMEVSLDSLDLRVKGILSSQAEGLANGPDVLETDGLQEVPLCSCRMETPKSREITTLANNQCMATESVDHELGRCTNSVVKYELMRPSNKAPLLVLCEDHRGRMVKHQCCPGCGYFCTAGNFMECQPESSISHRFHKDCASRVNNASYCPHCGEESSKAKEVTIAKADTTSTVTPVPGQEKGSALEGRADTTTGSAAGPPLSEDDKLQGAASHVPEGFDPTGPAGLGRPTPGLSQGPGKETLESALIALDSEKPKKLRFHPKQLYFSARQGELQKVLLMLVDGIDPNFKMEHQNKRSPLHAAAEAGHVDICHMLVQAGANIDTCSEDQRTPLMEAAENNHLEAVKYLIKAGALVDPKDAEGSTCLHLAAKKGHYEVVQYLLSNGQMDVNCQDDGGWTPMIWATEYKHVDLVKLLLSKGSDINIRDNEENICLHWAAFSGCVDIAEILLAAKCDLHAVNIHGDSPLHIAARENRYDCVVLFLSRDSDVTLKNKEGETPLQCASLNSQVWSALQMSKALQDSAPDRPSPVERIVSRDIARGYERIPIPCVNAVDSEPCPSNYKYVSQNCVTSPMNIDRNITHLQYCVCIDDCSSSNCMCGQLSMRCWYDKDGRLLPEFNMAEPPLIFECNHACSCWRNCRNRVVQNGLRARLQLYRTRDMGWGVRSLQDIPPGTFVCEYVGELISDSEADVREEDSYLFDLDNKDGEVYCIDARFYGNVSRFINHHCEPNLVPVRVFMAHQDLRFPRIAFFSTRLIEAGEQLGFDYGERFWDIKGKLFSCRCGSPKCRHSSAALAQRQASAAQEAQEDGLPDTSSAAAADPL

[1] = SILAC ratio, pull-down 3xMBT vs 3xMBTD355N
[2] = SILAC ratio DMSO/UNC0638 of protein pulled down with 3xMBT
[3] = SILAC ratio 3xMBT vs 3xMBTD355N pull-down, 293T cells, all values in log base 2
[4] = SILAC ratio DMSO relative to UNC0638, pull-down with 3xMBT, all values in log base 2

Molecule | 3xMBT/D355N UNC Heavy (3×MBT domain of L3MBTL1; [1]) [log base 2] | 3xMBT/D355N UNC Light (3×MBT domain of L3MBTL1; [1]) [log base 2] | Relative to UNC0638 UNC Heavy (G9a and GLP; [2]) [log base 2] | Relative to UNC0638 UNC Light (G9a and GLP; [2]) [log base 2] | Relative to UNC0638 Average (G9a and GLP) [log base 2] | Candidate G9a/GLP target (G9a and GLP; reduced association with 3xMBT after UNC0638 treatment) | 3xMBT/D355N UNC Heavy (3×MBT domain of L3MBTL1; [3]) [log base 2] | 3xMBT/D355N UNC Light (3×MBT domain of L3MBTL1; [3]) [log base 2] | Relative to UNC0638 UNC Heavy (G9a and GLP; [4]) [log base 2] | Relative to UNC0638 UNC Light (G9a and GLP; [4]) [log base 2] | Relative to UNC0638 Average (G9a and GLP; all values in log base 2) [log base 2]
B1 | 1.93 | 1.58 | 0.55 | 0.36 | 0.46 | ✓ |  |  |  |  | 
B2 |  |  |  |  |  |  | 1.58 | 1.48 | −0.78 | 0.47 | −0.15
B3 |  |  |  |  |  |  | 0.71 | 2.59 | −0.09 | −0.02 | −0.06

Reference: US20140274782A1, “AFFINITY REAGENTS AND METHODS FOR DETECTION, PURIFICATION, AND PROTEOMIC ANALYSIS OF METHYLATED PROTEINS” (The Board of Trustees of the Leland Stanford Junior …, priority 2013, published 2014)
